# B1: PilT^Pa two-hybrid fusion from pKT25::PilT^Pa (wild type) [Pseudomonas aeruginosa] / PilC^Pa two-hybrid fusion from pUT18C::PilC^Pa [Pseudomonas aeruginosa] (parent complex)
# chain 1: MDITELLAFSAKQGASDLHLSAGLPPMIRVDGDVRRINLPPLEHKQVHALIYDIMNDKQRKDFEEFLETDFSFEVPGVARFRVNAFNQNRGAGAVFRTIPSKVLTMEELGMGEVFKRVSDVPRGLVLVTGPTGSGKSTTLAAMLDYLNNTKYHHILTIEDPIEFVHESKKCLVNQREVHRDTLGFSEALRSALREDPDIILVGEMRDLETIRLALTAAETGHLVFGTLHTTSAAKTIDRVVDVFPAEEKAMVRSMLSESLQSVISQTLIKKIGGGRVAAHEIMIGTPAIRNLIREDKVAQMYSAIQTGGSLGMQTLDMCLKGLVAKGLISRENAREKAKIPENF
# chain 2: MLVKAHLRKQGINPLKVRKKGISLLGAGKKVKPMDIALFTRQMATMMGAGVPLLQSFDIIGEGFDNPNMRKLVDEIKQEVSSGNSLANSLRKKPQYFDELYCNLVDAGEQSGALENLLDRVATYKEKTESLKAKIRKAMTYPIAVIIVALIVSAILLIKVVPQFQSVFQGFGAELPAFTQMVVNLSEFLQEWWLAVIVGVGAIGFTFKELHKRSKKFRDTLDRTILKLPIFGGIVYKSAVARYARTLSTTFAAGVPLVDALDSVSGATGNIVFKNAVSKIKQDVSTGMQLNFSMRTTSVFPNMAIQMTAIGEESGSLDEMLSKVASYYEEEVDNAVDNLTTLMEPMIMAVLGVLVGGLIVAMYLPIFQLGNVVG
# Variants of: B1
# Experiment: bacterial two-hybrid (BACTH), β-galactosidase activity; E. coli BTH101; n = 3; parent: 650; read off a plot
row,Variant,response [Miller units]
1,chain 1 MDITELLAFSAKQGASDLHLSAGLPPMIRVDGDVRRINLPPLEHKQVHALIYDIMNDKQRKDFEEFLETDFSFEVPGVARFRVNAFNQNRGAGAVFRTIPSKVLTMEELGMGEVFKRVSDVPRGLVLVTGPTGSGKSTTLAAMLDYLNNTKYHHILTIEDPIEFVHESKKCLVNQREVHRDTLGFSEALRSALREDPDIILVGEMRDLETIRLALTAAETGHLVFGTLHTTSAAKTIDRVVDVFPAEEKAMVRSMLSESLQSVISQTLIKKIGGGRVAAHEIMIGTPAIRNLIEEDKVAQMYSAIQTGGSLGMQTLDMCLKGLVAKGLISRENAREKAKIPENF [chain 1 R294E],~200
2,chain 1 MDITELLAFSAKQGASDLHLSAGLPPMIRVDGDVRRINLPPLEHKQVHALIYDIMNDKQRKDFEEFLETDFSFEVPGVARFRVNAFNQNRGAGAVFRTIPSKVLTMEELGMGEVFKRVSDVPRGLVLVTGPTGSGKSTTLAAMLDYLNNTKYHHILTIEDPIEFVHESKKCLVNQREVHRDTLGFSEALRSALREDPDIILVGEMRDLETIRLALTAAETGHLVFGTLHTTSAAKTIDAVVDVFPAEEKAMVRSMLSESLQSVISQTLIKKIGGGRVAAHEIMIGTPAIRNLIREDKVAQMYSAIQTGGSLGMQTLDMCLKGLVAKGLISRENAREKAKIPENF [chain 1 R239A],~490
3,chain 1 MDITELLAFSAKQGASDLHLSAGLPPMIRVKGDVRRINLPPLEHKQVHALIYDIMNDKQRKDFEEFLETDFSFEVPGVARFRVNAFNQNRGAGAVFRTIPSKVLTMEELGMGEVFKRVSDVPRGLVLVTGPTGSGKSTTLAAMLDYLNNTKYHHILTIEDPIEFVHESKKCLVNQREVHRDTLGFSEALRSALREDPDIILVGEMRDLETIRLALTAAETGHLVFGTLHTTSAAKTIDRVVDVFPAEEKAMVRSMLSESLQSVISQTLIKKIGGGRVAAHEIMIGTPAIRNLIREDKVAQMYSAIQTGGSLGMQTLDMCLKGLVAKGLISRENAREKAKIPENF [chain 1 D31K],~220
4,chain 1 MDITELLAFSAKQGASDLHLSAGLPPMIRVDGDVRRINLPPLEHKQVHALIYDIMNDKQRKDFEEFLETDFSFEVPGVARFRVNAFNQNRGAGAVFRTIPSKVLTMEELGMGEVFKRVSDVPRGLVLVTGPTGSGKSTTLAAMLDYLNNTKYHHILTIEDPIEFVHESKKCLVNQREVHRDTLGFSEALRSALREDPDIILVGEMRDLETIRLALTAAETGHLVFGTLHTTSAAKTIDRVVKVFPAEEKAMVRSMLSESLQSVISQTLIKKIGGGRVAAHEIMIGTPAIRNLIREDKVAQMYSAIQTGGSLGMQTLDMCLKGLVAKGLISRENAREKAKIPENF [chain 1 D242K],~670
5,chain 1 MDITELLAFSAKQGASDLHLSAGLPPMIRVDGDVRRINLPPLEHKQVHALIYDIMNDKQRKDFEEFLETDFSFEVPGVARFRVNAFNQNRGAGAVFRTIPSKVLTMEELGMGEVFKRVSDVPRGLVLVTGPTGSGKSTTLAAMLDYLNNTKYHHILTIEDPIEFVHESKKCLVNQREVHRDTLGFSEALRSALREDPDIILVGEMRDLETIRLALRAAETGHLVFGTLHTTSAAKTIDRVVDVFPAEEKAMVRSMLSESLQSVISQTLIKKIGGGRVAAHEIMIGTPAIRNLIREDKVAQMYSAIQTGGSLGMQTLDMCLKGLVAKGLISRENAREKAKIPENF [chain 1 T216R],~700
6,chain 1 MDITELLAFSAKQGASDLHLSAGLPPMIRVDGDVRRINLPPLEHKQVHALIYDIMNDKQRKDFEEFLETDFSFEVPGVARFRVNAFNQNRGAGAVFRTIPSKVLTMEELGMGEVFKRVSDVPRGLVLVTGPTGSGKSTTLAAMLDYLNNTKYHHILTIEDPIEFVHESKKCLVNQREVHRDTLGFSEALRSALREDPDIILVGEMRDLETIRLALTAAETGHLVFGTLHTTSAAKTIDRVVDVFPAEEKAMVRSMLSASLQSVISQTLIKKIGGGRVAAHEIMIGTPAIRNLIREDKVAQMYSAIQTGGSLGMQTLDMCLKGLVAKGLISRENAREKAKIPENF [chain 1 E258A],~850
7,chain 1 MDITELLAFSAKQGASDLHLSAGLPPMIRVDGDVRRINLPPLEHKQVHALIYDIMNDKQRKDFEEFLETDFSFEVPGVARFRVNAFNQNRGAGAVFRTIPSKVLTMEELGMGEVFKRVSDVPRGLVLVTGPTGSGKSTTLAAMLDYLNNTKYHHILTIEDPIEFVHESKKCLVNQREVHRDTLGFSEALRSALREDPDIILVGEMRDLETIRLALTAAKTGHLVFGTLHTTSAAKTIDRVVDVFPAEEKAMVRSMLSESLQSVISQTLIKKIGGGRVAAHEIMIGTPAIRNLIREDKVAQMYSAIQTGGSLGMQTLDMCLKGLVAKGLISRENAREKAKIPENF [chain 1 E219K],~230
8,chain 1 MDITELLAFSAKQGASDLHLSAGLPPMIRVDGDVRRINLPPLEHKQVHALIYDIMNDAQRKDFEEFLETDFSFEVPGVARFRVNAFNQNRGAGAVFRTIPSKVLTMEELGMGEVFKRVSDVPRGLVLVTGPTGSGKSTTLAAMLDYLNNTKYHHILTIEDPIEFVHESKKCLVNQREVHRDTLGFSEALRSALREDPDIILVGEMRDLETIRLALTAAETGHLVFGTLHTTSAAKTIDRVVDVFPAEEKAMVRSMLSESLQSVISQTLIKKIGGGRVAAHEIMIGTPAIRNLIREDKVAQMYSAIQTGGSLGMQTLDMCLKGLVAKGLISRENAREKAKIPENF [chain 1 K58A],~700
9,chain 1 MDITELLAFSAKQGASDLHLSAGLPPMIRVDGDVRRINLPPLEHKQVHALIYDIMNDQQRKDFEEFLETDFSFEVPGVARFRVNAFNQNRGAGAVFRTIPSKVLTMEELGMGEVFKRVSDVPRGLVLVTGPTGSGKSTTLAAMLDYLNNTKYHHILTIEDPIEFVHESKKCLVNQREVHRDTLGFSEALRSALREDPDIILVGEMRDLETIRLALTAAETGHLVFGTLHTTSAAKTIDRVVDVFPAEEKAMVRSMLSESLQSVISQTLIKKIGGGRVAAHEIMIGTPAIRNLIREDKVAQMYSAIQTGGSLGMQTLDMCLKGLVAKGLISRENAREKAKIPENF [chain 1 K58Q],~630
10,chain 1 MDITELLAFSAKQGASDLHLSAGLPPMIRVDGDVRRINLPPLEHKQVHALIYDIMNDRQRKDFEEFLETDFSFEVPGVARFRVNAFNQNRGAGAVFRTIPSKVLTMEELGMGEVFKRVSDVPRGLVLVTGPTGSGKSTTLAAMLDYLNNTKYHHILTIEDPIEFVHESKKCLVNQREVHRDTLGFSEALRSALREDPDIILVGEMRDLETIRLALTAAETGHLVFGTLHTTSAAKTIDRVVDVFPAEEKAMVRSMLSESLQSVISQTLIKKIGGGRVAAHEIMIGTPAIRNLIREDKVAQMYSAIQTGGSLGMQTLDMCLKGLVAKGLISRENAREKAKIPENF [chain 1 K58R],~750
11,chain 1 MDITELLAFSAKQGASDLHLSAGLPPMIRVDGDVRRINLPPLEHKQVHALIYDIMNDKQRKDFEEFLETDFSFEVPGVARFRVNAFNQNRGAGAVFRTIPSKVLTMEELGMGEVFKRVSDVPDGLVLVTGPTGSGKSTTLAAMLDYLNNTKYHHILTIEDPIEFVHESKKCLVNQREVHRDTLGFSEALRSALREDPDIILVGEMRDLETIRLALTAAETGHLVFGTLHTTSAAKTIDRVVDVFPAEEKAMVRSMLSESLQSVISQTLIKKIGGGRVAAHEIMIGTPAIRNLIREDKVAQMYSAIQTGGSLGMQTLDMCLKGLVAKGLISRENAREKAKIPENF [chain 1 R123D],~140

# From publication PMC6858323 (2019)
